The numbers were not newly measured in PMC7232523, which cites them from elsewhere.

For data set [1], the target named is IL-4Ra (Homo sapiens) (UniProt P24394).
Data set [2] addresses IL-13Ra1/IL-4Ra (Homo sapiens) (UniProt P78552).
UniProt P78552, sequence (P78552 22-343, chain 1 of 2): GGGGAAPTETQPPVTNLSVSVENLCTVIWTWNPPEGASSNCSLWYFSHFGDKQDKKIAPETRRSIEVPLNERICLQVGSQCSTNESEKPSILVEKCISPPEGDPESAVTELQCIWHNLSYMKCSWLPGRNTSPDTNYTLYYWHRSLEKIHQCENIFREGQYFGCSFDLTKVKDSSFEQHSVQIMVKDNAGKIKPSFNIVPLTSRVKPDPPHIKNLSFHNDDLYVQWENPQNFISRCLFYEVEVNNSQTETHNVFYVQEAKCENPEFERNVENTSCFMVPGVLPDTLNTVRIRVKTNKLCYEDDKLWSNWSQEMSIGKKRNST
UniProt P78552, sequence (P24394 26-232, chain 2 of 2, further chain): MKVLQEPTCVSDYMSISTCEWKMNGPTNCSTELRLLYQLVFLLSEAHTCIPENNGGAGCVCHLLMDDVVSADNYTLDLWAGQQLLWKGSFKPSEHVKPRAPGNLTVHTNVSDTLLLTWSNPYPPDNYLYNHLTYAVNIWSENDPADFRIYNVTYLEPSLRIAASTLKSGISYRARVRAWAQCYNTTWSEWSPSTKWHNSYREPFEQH

UniProt P24394, sequence (P24394 26-232): as the sequence (P24394 26-232, chain 2 of 2, further chain) above

As to IL-4 (from UniProt P05112), the Kd in data set [1] was 0.1 nM.
For IL-13 (from UniProt P35225), in data set [2], the dissociation constant Kd is 0.035 nM.

As usually defined, the Kd is the constant that tells how readily two partners part at equilibrium.
